Source: paper PMC9633819 (Nature Communications, 2022)
Values joined by “and” are separate entries in the source; they are usually repeats but may differ in a detail not shown here. Equal entries are not always repeated.

Tests used:
[1] = molecular target: T1, contactin 1^fe HM (full ectodomain, residues 21–996), C-terminally biotinylated SPR ligand (mouse, UniProt P12960 21-996, biotin on the C-terminal biotin acceptor peptide; N-linked high mannose glycans); experiment: SPR
T1 chain: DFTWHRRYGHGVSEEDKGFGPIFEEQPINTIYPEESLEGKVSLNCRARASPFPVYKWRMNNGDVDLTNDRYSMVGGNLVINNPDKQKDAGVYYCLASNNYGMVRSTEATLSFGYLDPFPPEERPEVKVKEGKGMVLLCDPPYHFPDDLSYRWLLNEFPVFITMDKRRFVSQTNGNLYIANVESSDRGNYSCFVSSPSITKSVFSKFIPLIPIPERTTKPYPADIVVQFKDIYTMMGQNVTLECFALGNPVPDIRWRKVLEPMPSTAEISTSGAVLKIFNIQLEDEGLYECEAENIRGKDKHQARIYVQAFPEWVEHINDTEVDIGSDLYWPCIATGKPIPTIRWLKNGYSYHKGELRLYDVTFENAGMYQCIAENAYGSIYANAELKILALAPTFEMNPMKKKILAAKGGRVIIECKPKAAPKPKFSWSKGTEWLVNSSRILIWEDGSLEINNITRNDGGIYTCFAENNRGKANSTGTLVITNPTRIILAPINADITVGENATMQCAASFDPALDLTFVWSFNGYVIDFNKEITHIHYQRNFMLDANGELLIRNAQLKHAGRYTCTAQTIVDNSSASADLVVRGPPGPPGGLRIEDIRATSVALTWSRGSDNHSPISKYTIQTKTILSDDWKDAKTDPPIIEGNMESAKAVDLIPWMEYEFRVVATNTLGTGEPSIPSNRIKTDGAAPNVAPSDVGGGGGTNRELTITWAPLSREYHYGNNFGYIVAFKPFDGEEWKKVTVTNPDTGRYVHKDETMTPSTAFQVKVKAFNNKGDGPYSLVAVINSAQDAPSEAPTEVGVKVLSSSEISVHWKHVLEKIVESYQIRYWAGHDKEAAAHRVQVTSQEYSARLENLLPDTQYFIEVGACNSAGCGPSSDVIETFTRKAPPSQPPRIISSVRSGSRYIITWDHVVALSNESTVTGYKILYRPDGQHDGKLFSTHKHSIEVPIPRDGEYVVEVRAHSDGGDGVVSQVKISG

[2] = molecular target: neurofascin 155^Ig1–6 (residues 25–633), high mannose glycans (mouse); experiment: SEC-MALS + other: SAXS; dimer to monomers; estimate from the concentration dependence of peak position, molecular weight and Rg; 25 mM HEPES pH 7.5, 150 mM NaCl
[3] = molecular target: contactin 1^Ig1–6 HM, C-terminally biotinylated SPR ligand (mouse) (UniProt P12960); experiment: SPR; SPR imaging (MX96 SPRi); C-terminally biotinylated contactin 1 ligands spotted on a P-STREP SensEye chip, neurofascin 155^Ig1–6 as analyte; 25 °C; 25 mM HEPES pH 7.5, 150 mM NaCl with 0.005% Tween-20; equilibrium response fitted with a 1:1 Langmuir model
SAXS Kratky plots = conditions: glycan changed form; control: contactin 1 with complex glycans
[4] = K562 cell clustering index; conditions: glycan changed form; control: untreated contactin 1 K562 cells

B1: neurofascin 155^Ig1–6 (residues 25–633), high mannose glycans (domain or fragment)
chain: IEIPMDLTQPPTITKQSVKDHIVDPRDNILIECEAKGNPAPSFHWTRNSRFFNIAKDPRVSMRRRSGTLVIDFRSGGRPEEYEGEYQCFARNKFGTALSNRIRLQVSKSPLWPKENLDPVVVQEGAPLTLQCNPPPGLPSPVIFWMSSSMEPITQDKRVSQGHNGDLYFSNVMLQDMQTDYSCNARFHFTHTIQQKNPFTLKVLTNNPYNDSSLRNHPDIYSARGVAERTPSFMYPQGTSSSQMVLRGMDLLLECIASGVPTPDIAWYKKGGDLPSNKAKFENFNKALRITNVSEEDSGEYFCLASNKMGSIRHTISVRVKAAPYWLDEPKNLILAPGEDGRLVCRANGNPKPTVQWMVNGEPLQSAPPNPNREVAGDTIIFRDTQISSRAVYQCNTSNEHGYLLANAFVSVLDVPPRMLSARNQLIRVILYNRTRLDCPFFGSPIPTLRWFKNGQGSNLDGGNYHVYENGSLEIKMIRKEDQGIYTCVATNILGKAENQVRLEVKDPTRIYRMPEDQVAKRGTTVQLECRVKHDPSLKLTVSWLKDDEPLYIGNRMKKEDDSLTIFGVAERDQGSYTCMASTELDQDLAKAYLTVLADQATPTNRLAA
modifications: N-linked high mannose glycans (glycans at Asn316, Asn420, Asn457 and Asn494 are named)
With B1 the Kd [1] was 270 nM and 310 nM, the Kd [2] was 5000 to 30000 nM and the Kd [3] was 220 nM.

B2: contactin 1: high mannose glycans (GnTI- HEK293) (protein)
parent chain: MKMPLLVSHLLLISLTSCLGDFTWHRRYGHGVSEEDKGFGPIFEEQPINTIYPEESLEGKVSLNCRARASPFPVYKWRMNNGDVDLTNDRYSMVGGNLVINNPDKQKDAGVYYCLASNNYGMVRSTEATLSFGYLDPFPPEERPEVKVKEGKGMVLLCDPPYHFPDDLSYRWLLNEFPVFITMDKRRFVSQTNGNLYIANVESSDRGNYSCFVSSPSITKSVFSKFIPLIPIPERTTKPYPADIVVQFKDIYTMMGQNVTLECFALGNPVPDIRWRKVLEPMPSTAEISTSGAVLKIFNIQLEDEGLYECEAENIRGKDKHQARIYVQAFPEWVEHINDTEVDIGSDLYWPCIATGKPIPTIRWLKNGYSYHKGELRLYDVTFENAGMYQCIAENAYGSIYANAELKILALAPTFEMNPMKKKILAAKGGRVIIECKPKAAPKPKFSWSKGTEWLVNSSRILIWEDGSLEINNITRNDGGIYTCFAENNRGKANSTGTLVITNPTRIILAPINADITVGENATMQCAASFDPALDLTFVWSFNGYVIDFNKEITHIHYQRNFMLDANGELLIRNAQLKHAGRYTCTAQTIVDNSSASADLVVRGPPGPPGGLRIEDIRATSVALTWSRGSDNHSPISKYTIQTKTILSDDWKDAKTDPPIIEGNMESAKAVDLIPWMEYEFRVVATNTLGTGEPSIPSNRIKTDGAAPNVAPSDVGGGGGTNRELTITWAPLSREYHYGNNFGYIVAFKPFDGEEWKKVTVTNPDTGRYVHKDETMTPSTAFQVKVKAFNNKGDGPYSLVAVINSAQDAPSEAPTEVGVKVLSSSEISVHWKHVLEKIVESYQIRYWAGHDKEAAAHRVQVTSQEYSARLENLLPDTQYFIEVGACNSAGCGPSSDVIETFTRKAPPSQPPRIISSVRSGSRYIITWDHVVALSNESTVTGYKILYRPDGQHDGKLFSTHKHSIEVPIPRDGEYVVEVRAHSDGGDGVVSQVKISGVSTLSSSLLSLLLPSLGFLVYSEF
In the case of B2, the structure_or_conformation (SAXS Kratky plots) is reported as “no change”.

B3: contactin 1: kifunensine (protein)
parent chain: MKMPLLVSHLLLISLTSCLGDFTWHRRYGHGVSEEDKGFGPIFEEQPINTIYPEESLEGKVSLNCRARASPFPVYKWRMNNGDVDLTNDRYSMVGGNLVINNPDKQKDAGVYYCLASNNYGMVRSTEATLSFGYLDPFPPEERPEVKVKEGKGMVLLCDPPYHFPDDLSYRWLLNEFPVFITMDKRRFVSQTNGNLYIANVESSDRGNYSCFVSSPSITKSVFSKFIPLIPIPERTTKPYPADIVVQFKDIYTMMGQNVTLECFALGNPVPDIRWRKVLEPMPSTAEISTSGAVLKIFNIQLEDEGLYECEAENIRGKDKHQARIYVQAFPEWVEHINDTEVDIGSDLYWPCIATGKPIPTIRWLKNGYSYHKGELRLYDVTFENAGMYQCIAENAYGSIYANAELKILALAPTFEMNPMKKKILAAKGGRVIIECKPKAAPKPKFSWSKGTEWLVNSSRILIWEDGSLEINNITRNDGGIYTCFAENNRGKANSTGTLVITNPTRIILAPINADITVGENATMQCAASFDPALDLTFVWSFNGYVIDFNKEITHIHYQRNFMLDANGELLIRNAQLKHAGRYTCTAQTIVDNSSASADLVVRGPPGPPGGLRIEDIRATSVALTWSRGSDNHSPISKYTIQTKTILSDDWKDAKTDPPIIEGNMESAKAVDLIPWMEYEFRVVATNTLGTGEPSIPSNRIKTDGAAPNVAPSDVGGGGGTNRELTITWAPLSREYHYGNNFGYIVAFKPFDGEEWKKVTVTNPDTGRYVHKDETMTPSTAFQVKVKAFNNKGDGPYSLVAVINSAQDAPSEAPTEVGVKVLSSSEISVHWKHVLEKIVESYQIRYWAGHDKEAAAHRVQVTSQEYSARLENLLPDTQYFIEVGACNSAGCGPSSDVIETFTRKAPPSQPPRIISSVRSGSRYIITWDHVVALSNESTVTGYKILYRPDGQHDGKLFSTHKHSIEVPIPRDGEYVVEVRAHSDGGDGVVSQVKISGVSTLSSSLLSLLLPSLGFLVYSEF
For B3, the “other: homophilic cell clustering” value [4] was “no change”.
